Reference: patent US20190071480A1 (Biogen, published 2019)
Numbering of substitutions follows the chain as printed. One block for each binder: values may come before it.

How the values were obtained:
[1] = target: T1, extracellular domain of activin receptor type IIB (ActRIIBecd), biotinylated (Homo sapiens (Human), UniProt Q13705 27-117, amino-biotinylated with amine-PEG3-Biotin); test: BIAcore SPR as Example 5 (method not restated); SD ±2.65 nM
T1 construct: immobilised on a streptavidin-coated sensor chip; also called biotinylated ActRIIBecd; extracellular domain of ActRIIB
T1 sequence: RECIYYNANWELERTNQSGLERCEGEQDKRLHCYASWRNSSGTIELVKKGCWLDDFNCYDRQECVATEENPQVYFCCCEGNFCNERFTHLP
Protocol: (§1) Biosensor experiments. In one embodiment, experiments were performed on a BIAcore™ T100/T200 instrument (Pharmacia Biosensor AB) in the multichannel mode (serial flow path involving flow cells 1+2+3+4). Flow rate was 10 μl/min; temperature was 25° C.; and data were recorded at 2.5 points/s. All four segments of a sensor chip CMS were coated with streptavidin (Sigma) to a density of 2000 pg/mm² (2000 resonance units) by the aminocoupling procedure. ActRIIBecd (10 mg) and amine-PEG3-Biotin (10 mg, Pierce, Rockford, Ill.) were dissolved in 200 μl H₂O and 10 mg NaCNBH₃ was added to prepare biotinylated ActRIIBecd. The reaction mixture was heated at 70° C. for 24 h, after that a further 10 mg NaCNBH₃ was added and the reaction was heated at 70° C. for another 24 h. After cooling to room temperature, the mixture was desalted with the spin column (3,000 molecular weight cut off (MWCO)). […] Sensograms were recorded during flow of the analyte (the ActRIIBecd-associated polypeptides (i.e., domains) as previously described) first through flow cell 1 (control) then through flow cell 2 (biotinylated ActRIIBecd). […] The sensograms obtained at 1.11, 3.33, 10, 30, and 90 nM analyte were evaluated for equilibrium binding, association rate, and dissociation rate by using the programs supplied with the instrument (BIA evaluation 2.1; Software Handbook. 1995; Pharmacia Biosensor AB).

[2] = target: T1, extracellular domain of activin …; test: Mean KD column of Table 5; method not restated (BIAcore as Example 5); species also listed in Table 4
Procedure, shortened: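 Equilibrium binding plus on- and off-rates came from reference-subtracted sensograms of five analyte concentrations (1.11, 3.33, 10, 30, 90 nM). The receptor domain, amine-linked to biotin, sat on a streptavidin chip at a density of 50-250 RU. Flow was 10 μl/min at 25° C.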

[3] = target: T1, extracellular domain of activin …; test: BIAcore SPR as Example 5 (method not restated); SD ±1.04 nM
Protocol: as §1

[4] = target: T1, extracellular domain of activin …; test: BIAcore SPR as Example 5 (method not restated); SD ±1.18 nM
Protocol: as §1

[5] = target: T1, extracellular domain of activin …; test: BIAcore SPR as Example 5 (method not restated); SD ±1.43 nM
Protocol: as §1

[6] = target: T1, extracellular domain of activin …; test: BIAcore SPR as Example 5 (method not restated); SD ±1.33 nM
Protocol: as §1

[7] = target: T1, extracellular domain of activin …; test: BIAcore SPR as Example 5 (method not restated); SD ±2.07 nM
Protocol: as §1

[8] = target: T1, extracellular domain of activin …; test: BIAcore SPR, biotinylated ActRIIBecd on chip; SD ±17.89 nM
Protocol: as §1

[9] = target: T1, extracellular domain of activin …; test: BIAcore SPR, biotinylated ActRIIBecd on chip; SD ±16.78 nM
Protocol: as §1

[10] = target: T1, extracellular domain of activin …; test: BIAcore SPR as Example 5 (method not restated); SD ±3.33 nM
Protocol: as §1

[11] = target: T1, extracellular domain of activin …; test: BIAcore SPR as Example 5 (method not restated); SD ±1.45 nM
Protocol: as §1

[12] = target: T1, extracellular domain of activin …; test: BIAcore SPR as Example 5 (method not restated); SD ±1.92 nM
Protocol: as §1

[13] = target: T1, extracellular domain of activin …; test: BIAcore SPR as Example 5 (method not restated); SD ±1.17 nM
Protocol: as §1

[14] = target: T1, extracellular domain of activin …; test: BIAcore SPR as Example 5 (method not restated); SD ±2.63 nM
Protocol: as §1

[15] = target: T1, extracellular domain of activin …; test: BIAcore SPR as Example 5 (method not restated); SD ±1.95 nM
Protocol: as §1

[16] = target: T1, extracellular domain of activin …; test: BIAcore SPR as Example 5 (method not restated); SD ±1.59 nM
Protocol: as §1

[17] = target: T1, extracellular domain of activin …; test: BIAcore SPR as Example 5 (method not restated); SD ±1.94 nM
Protocol: as §1

[18] = target: T1, extracellular domain of activin …; test: BIAcore SPR as Example 5 (method not restated); SD ±1.84 nM
Protocol: as §1

[19] = target: T1, extracellular domain of activin …; test: BIAcore SPR as Example 5 (method not restated); SD ±2.36 nM
Protocol: as §1

[20] = target: T1, extracellular domain of activin …; test: BIAcore SPR as Example 5 (method not restated); SD ±1.11 nM
Protocol: as §1

- Kd [1]: 28.9 nM
- Kd [2]: 28.9 nM
B1: SEQ ID NO: 316, cysteine pairs C8-C67^a (designed binder)
chain: NSKDPKACCVPTELSAPSPLYLDENEKPVLKNYQDMVVHGCGCRVDFKDVGWNDHAVAPPGYHAFYCHGECPFPLADHLNSDNHAIVQTKVNSVGQAKRKGYKRLKSSCKRHPLY
modifications: disulfides C8-C67 (intra)

- Kd [3]: 6.17 nM
- Kd [2]: 6.17 nM
B2: SEQ ID NO: 316, cysteine pairs C67-C71^a, C8-C43^a, C9-C41^a, C109-C109^b (designed binder)
chain: B1 chain
modifications: disulfides C67-C71 (intra), C8-C43 (intra), C9-C41 (intra), C109-C109 (inter)
notes: homodimer by intermolecular disulfide

- Kd [4]: 5.78 nM
- Kd [2]: 5.78 nM
B3: SEQ ID NO: 316, cysteine pairs C67-C71^a, C8-C43^b, C9-C41^b, C109-C109^b (designed binder)
chain: B1 chain
modifications: disulfides C67-C71 (intra), C8-C43 (inter), C9-C41 (inter), C109-C109 (inter)
notes: as for B2

- Kd [5]: 5.98 nM
- Kd [2]: 5.98 nM
B4: SEQ ID NO: 308, cysteine pairs C59-C59^b, C8-C41^a, C9-C43^a, C88-C92^a (designed binder)
chain: NSKDPKACCVPTELSAPSPLYLDENEKPVLKNYQDMVVHGCGCRGQAKRKGYKRLKSSCKRHPLYVDFKDVGWNDHAVAPPGYHAFYCHGECPFPLADHLNSDNHAIVQTKVNSV
modifications: disulfides C59-C59 (inter), C8-C41 (intra), C9-C43 (intra), C88-C92 (intra)
notes: as for B2

- Kd [6]: 6.11 nM
- Kd [2]: 6.11 nM
B5: SEQ ID NO: 308, cysteine pairs C59-C59^b, C8-C43^a, C9-C41^a, C88-C92^a (designed binder)
chain: B4 chain
modifications: disulfides C59-C59 (inter), C8-C43 (intra), C9-C41 (intra), C88-C92 (intra)
notes: as for B2

- Kd [7]: 31.2 nM
- Kd [2]: 31.2 nM
B6: SEQ ID NO: 308, cysteine pairs C8-C9^a (designed binder)
chain: B4 chain
modifications: disulfides C8-C9 (intra)

- Kd [8]: 67.4 nM
B7: Clone No. 17 domain (ActRIIBecd-associated polypeptide) (peptide)
chain: VDFSDVGWNDWIVAPPGYHAFYCHGECPFPLADHLNSDNHAIVQTLVNSV

- Kd [9]: 64.1 nM
B8: Clone No. 18 domain (ActRIIBecd-associated polypeptide) (peptide)
chain: B7 chain with W11H, I12A, D38T

- Kd [10]: 29.1 nM
- Kd [2]: 29.1 nM
B9: SEQ ID NO: 348, cysteine pairs C29-C30^a (designed binder)
chain: GQAKRKGYKRLKSSCKRHPLYNSKIPKACCVPTELSAISMLYLDENEKVVLKNYQDMVVEGCGCRVDFSDVGWNDWIVAPPGYHAFYCHGECPFPLADHLNSTNHAIVQTLVNSV
modifications: disulfides C29-C30 (intra)

- Kd [11]: 6.31 nM
- Kd [2]: 6.31 nM
B10: SEQ ID NO: 348, cysteine pairs C15-C15^b, C29-C62^b, C30-C64^b, C88-C92^a (designed binder)
chain: B9 chain
modifications: disulfides C15-C15 (inter), C29-C62 (inter), C30-C64 (inter), C88-C92 (intra)
notes: as for B2

- Kd [12]: 6.77 nM
- Kd [2]: 6.77 nM
B11: SEQ ID NO: 348, cysteine pairs C15-C15^b, C29-C64^a, C30-C62^a, C88-C92^a (designed binder)
chain: B9 chain
modifications: disulfides C15-C15 (inter), C29-C64 (intra), C30-C62 (intra), C88-C92 (intra)
notes: as for B2

- Kd [13]: 5.77 nM
- Kd [2]: 5.77 nM
B12: SEQ ID NO: 340, cysteine pairs C15-C15^b, C29-C62^a, C30-C64^a, C88-C92^a (designed binder)
chain: AQAKHKQRKRLKSSCKRHPLYNSKDPKACCVPTELSAPSPLYLDENEKPVLKNYQDMVVHGCGCRVDFKDVGWNDHAVAPPGYHAFYCHGECPFPLADHLNSDNHAIVQTKVNSV
modifications: disulfides C15-C15 (inter), C29-C62 (intra), C30-C64 (intra), C88-C92 (intra)
notes: as for B2

- Kd [14]: 30.1 nM
- Kd [2]: 30.1 nM
B13: SEQ ID NO: 340, cysteine pairs C15-C29^a (designed binder)
chain: B12 chain
modifications: disulfides C15-C29 (intra)

- Kd [15]: 7.19 nM
- Kd [2]: 7.19 nM
B14: SEQ ID NO: 340, cysteine pairs C15-C15^b, C29-C64^a, C30-C62^a, C88-C92^a (designed binder)
chain: B12 chain
modifications: disulfides C15-C15 (inter), C29-C64 (intra), C30-C62 (intra), C88-C92 (intra)
notes: as for B2

- Kd [16]: 8.42 nM
- Kd [2]: 8.42 nM
B15: SEQ ID NO: 324, cysteine pairs C15-C15^b, C79-C114^a, C80-C112^a, C44-C48^a (designed binder)
chain: AQAKHKQRKRLKSSCKRHPLYVDFKDVGWNDHAVAPPGYHAFYCHGECPFPLADHLNSDNHAIVQTKVNSVNSKIPKACCVPTELSAISMLYLDENEKVVLKNYQDMVVEGCGCR
modifications: disulfides C15-C15 (inter), C79-C114 (intra), C80-C112 (intra), C44-C48 (intra)
notes: as for B2

- Kd [17]: 7.42 nM
- Kd [2]: 7.42 nM
B16: SEQ ID NO: 332, cysteine pairs C15-C15^b, C80-C114^b, C79-C112^b, C44-C48^a (designed binder)
chain: GQAKRKGYKRLKSSCKRHPLYVDFSDVGWNDWIVAPPGYHAFYCHGECPFPLADHLNSTNHAIVQTLVNSVNSKDPKACCVPTELSAPSPLYLDENEKPVLKNYQDMVVHGCGCR
modifications: disulfides C15-C15 (inter), C80-C114 (inter), C79-C112 (inter), C44-C48 (intra)
notes: as for B2

- Kd [18]: 7.18 nM
- Kd [2]: 7.18 nM
B17: SEQ ID NO: 332, cysteine pairs C15-C15^b, C80-C112^a, C79-C114^a, C44-C48^a (designed binder)
chain: B16 chain
modifications: disulfides C15-C15 (inter), C80-C112 (intra), C79-C114 (intra), C44-C48 (intra)
notes: as for B2

- Kd [19]: 28.5 nM
- Kd [2]: 28.5 nM
B18: SEQ ID NO: 332, cysteine pairs C79-C80^a (designed binder)
chain: B16 chain
modifications: disulfides C79-C80 (intra)

- Kd [20]: 5.98 nM
- Kd [2]: 5.98 nM
B19: SEQ ID NO: 332, cysteine pairs C15-C15^b, C80-C114^a, C79-C112^a, C44-C48^a (designed binder)
chain: B16 chain
modifications: disulfides C15-C15 (inter), C80-C114 (intra), C79-C112 (intra), C44-C48 (intra)
notes: as for B2
